Consider 11 substances from US20240181007A1, “COMPOSITIONS AND METHODS FOR TREATING PULMONARY HYPERTENSION” (Acceleron Pharma Inc., priority 2021, published 2024).

Experiment [1] addresses T1, BMP10 (Homo sapiens, UniProt O95393).
T1 sequence (O95393 317-424): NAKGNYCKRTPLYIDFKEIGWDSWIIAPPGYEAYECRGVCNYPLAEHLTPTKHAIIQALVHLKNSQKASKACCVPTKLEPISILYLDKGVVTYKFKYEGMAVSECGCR
The experiment is described as follows: Biacore-based binding assay (surface plasmon resonance), BMP10. The conditions noted are these: for BMP10 binding compared to ActRIIB-G1Fc (in words): SPR 37° C., FIGS. 8A and 8B. Here is the method: (§1) To determine ligand binding profiles of variant ActRIIB-Fc homodimers, a Biacore™-based binding assay was used to compare ligand binding kinetics of certain variant ActRIIB-Fc polypeptides. ActRIIB-Fc polypeptides to be tested were independently captured onto the system using an anti-Fc antibody. Ligands were then injected and allowed to flow over the captured receptor protein. ActRIIB-G1Fc was used as the control polypeptide.
(§2) A Biacore™-based binding assay was used to compare the ligand binding kinetics of an ActRIIB-Fc:ActRIIB(L79E)-Fc heterodimer with those of unmodified ActRIIB-Fc homodimer. Fusion proteins were captured onto the system using an anti-Fc antibody. Ligands were then injected and allowed to flow over the captured receptor protein at 37° C. Results are summarized in the table below, in which ligand off-rates (kd) most indicative of effective ligand traps are denoted in bold.

The target in experiment [2] is T2, Activin B (Homo sapiens, UniProt P09529).
T2 sequence (P09529 293-407): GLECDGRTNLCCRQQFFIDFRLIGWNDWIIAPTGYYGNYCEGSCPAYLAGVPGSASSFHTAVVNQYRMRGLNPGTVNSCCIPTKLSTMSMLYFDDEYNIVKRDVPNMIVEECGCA
The experiment can be described thus: Biacore-based binding assay (surface plasmon resonance), activin B. Conditions: for affinity for activin B compared to unmodified ActRIIB-Fc (in words): SPR 37° C., compared to ActRIIB-G1Fc / ActRIIB-Fc homodimer. As for the experimental part: as §1, §2

The target in experiment [3] is T3, BMP9 (Homo sapiens, UniProt Q9UK05).
T3 sequence (Q9UK05 320-429): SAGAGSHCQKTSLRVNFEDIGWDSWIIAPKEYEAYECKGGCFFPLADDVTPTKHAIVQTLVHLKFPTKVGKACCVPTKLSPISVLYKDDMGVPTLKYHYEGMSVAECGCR
The experiment is described as follows: Biacore-based binding assay (surface plasmon resonance), BMP9. Conditions: for binding to BMP9 compared to unmodified ActRIIB-Fc (in words): SPR 37° C., compared to ActRIIB-G1Fc / ActRIIB-Fc homodimer. As for the experimental part:
as §1
(§3) To determine ligand binding profiles of variant ActRIIB-Fc homodimers, a Biacore™-based binding assay was used to compare ligand binding kinetics of certain variant ActRIIB-Fc polypeptides. ActRIIB-Fc polypeptides to be tested were independently captured onto the system using an anti-Fc antibody. Ligands were then injected and allowed to flow over the captured receptor protein.
as §2

In experiment [4] the target is T4, Activin A (Homo sapiens, UniProt P08476).
T4 sequence (P08476 311-426): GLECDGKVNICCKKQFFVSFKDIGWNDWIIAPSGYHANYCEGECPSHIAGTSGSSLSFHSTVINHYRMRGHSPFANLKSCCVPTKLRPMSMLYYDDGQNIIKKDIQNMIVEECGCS
The experiment can be described thus: Biacore-based binding assay (surface plasmon resonance), activin A. Conditions: for activin A binding compared to ActRIIB-G1Fc (in words): SPR 37° C., FIGS. 8A and 8B. As for the experimental part: as §1, §3, §2

Experiment [5] addresses T5, GDF11 (Homo sapiens, UniProt O95390).
T5 sequence (O95390 299-407): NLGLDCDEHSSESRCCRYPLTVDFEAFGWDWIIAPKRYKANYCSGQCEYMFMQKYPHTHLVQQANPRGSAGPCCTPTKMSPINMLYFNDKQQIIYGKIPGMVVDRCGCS
The experiment can be described thus: Biacore-based binding assay (surface plasmon resonance), GDF11. As for the experimental part:
as §1, §3, §2

In experiment [6] the target is T6, GDF3 (Homo sapiens, UniProt Q9NR23).
T6 sequence (Q9NR23 251-364): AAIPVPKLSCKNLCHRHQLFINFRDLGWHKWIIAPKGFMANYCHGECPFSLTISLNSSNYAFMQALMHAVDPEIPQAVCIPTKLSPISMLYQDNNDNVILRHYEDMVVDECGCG
The experiment can be described thus: Biacore-based binding assay (surface plasmon resonance), GDF3. Conditions: 37° C., capture by anti-Fc antibody. Here is the method:
as §2

The target in experiment [7] is T7, GDF8 (Homo sapiens, UniProt O14793).
T7 sequence (O14793 267-375): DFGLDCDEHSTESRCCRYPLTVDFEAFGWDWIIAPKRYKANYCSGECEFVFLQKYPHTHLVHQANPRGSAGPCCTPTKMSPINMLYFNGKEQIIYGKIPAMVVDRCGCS
The experiment is described as follows: Biacore-based binding assay (surface plasmon resonance), GDF8. As for the experimental part: as §1, §2

The target of experiment [8] is T8, BMP6 (Homo sapiens, UniProt P22004).
T8 sequence (P22004 375-513): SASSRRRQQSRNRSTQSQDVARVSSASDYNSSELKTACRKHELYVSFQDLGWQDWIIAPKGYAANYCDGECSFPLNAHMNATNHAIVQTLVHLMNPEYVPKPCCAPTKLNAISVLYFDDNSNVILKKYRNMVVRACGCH
The experiment is described as follows: Biacore-based binding assay (surface plasmon resonance), BMP6. Conditions: 37° C., capture by anti-Fc antibody. Here is the method:
as §2

The target in experiment [9] is T9, BMP9 (UniProt Q9UK05 320-429).
T9 sequence (looked up): T3 sequence (Q9UK05 320-429)
The experiment is described as follows: cell-based or functional assay.

The target in experiment [10] is T10, activin A (UniProt P08476 311-426).
T10 construct: Soluble ligand injected in SPR or added in the reporter assay
T10 sequence (looked up): T4 sequence (P08476 311-426)
The experiment can be described thus: cell-based or functional assay.

Experiment [11] addresses T11, GDF11 (UniProt O95390 299-407).
T11 construct: also called Growth and differentiation factor-11; BMP11
T11 sequence (looked up): T5 sequence (O95390 299-407)
The experiment is described as follows: cell-based or functional assay.

Setting [12] is: 37° C., capture by anti-Fc antibody.
[13] abbreviates: 37° C., capture by anti-Fc antibody, Transient*: indeterminate due to transient nature of interaction.
[14] abbreviates: SPR 37° C., compared to ActRIIB-G1Fc / ActRIIB-Fc homodimer.

Turning to “L79H-F82I: homodimeric ActRIIB-G1Fc fusion with L79H and F82I substitutions; mature SEQ ID NO: 341”, the “BMP10 binding compared to ActRIIB-G1Fc (in words)” value in experiment [1] is recorded as “decrease in BMP10 binding”. Besides, the “affinity for activin B compared to unmodified ActRIIB-Fc (in words)” value in experiment [2] was “relatively high affinity for activin B”. Moreover, the “binding to BMP9 compared to unmodified ActRIIB-Fc (in words)” value in experiment [3] is “decrease in binding to BMP9”. For the same substance, the “activin A binding compared to ActRIIB-G1Fc (in words)” value in experiment [4] is on record as “significant decrease”.

On to “ActRIIB-Fc homodimer: unmodified ActRIIB-Fc homodimer, comparator of the heterodimer in Table 6”, for which, in experiment [5] (setting [12]), the “ka GDF11” value worked out at 4.1e+07 M⁻¹ s⁻¹ and the “kd GDF11” value worked out at 0.00017 s⁻¹. In experiment [6], the “ka GDF3” value was 1.4e+06 M⁻¹ s⁻¹ and the “kd GDF3” value is 0.0022 s⁻¹. Also, in experiment [7] (setting [12]), the “ka GDF8” value is 3.8e+06 M⁻¹ s⁻¹ and the “kd GDF8” value came to 0.00026 s⁻¹. In addition, in experiment [1] (setting [12]), the “ka BMP10” value worked out at 5.1e+07 M⁻¹ s⁻¹ and the “kd BMP10” value amounted to 0.0002 s⁻¹. Further, in experiment [2] (setting [12]), the “ka Activin B” value was 8.1e+06 M⁻¹ s⁻¹ and the “kd Activin B” value was found to be 6.6e-05 s⁻¹. Further, in [8], the “ka BMP6” value worked out at 1.3e+08 M⁻¹ s⁻¹ and the “kd BMP6” value was 0.0074 s⁻¹. In experiment [3] (setting [13]), the “ka BMP9” value came out at 5e+06 M⁻¹ s⁻¹ and the “kd BMP9” value worked out at 0.0013 s⁻¹. Besides, in experiment [4] (setting [12]), the “ka Activin A” value is 7.4e+06 M⁻¹ s⁻¹ and the “kd Activin A” value was 0.00019 s⁻¹.

Consider “K55R (homodimeric ActRIIB-Fc construct) (Fc fusion)”, for which the IC50 (ng/ml), A204 CAGA12 luciferase reporter assay in [9] worked out at 777 ng/mL; in [10], 206 ng/mL; in experiment [11] it was 318 ng/mL.

In the case of “E50K (homodimeric ActRIIB-Fc construct) (Fc fusion)”, the IC50 (ng/ml), A204 CAGA12 luciferase reporter assay in [9] was found to be 721 ng/mL; in [10], 132 ng/mL; in [11] it was 180 ng/mL.

As for “E52K (homodimeric ActRIIB-Fc construct) (Fc fusion)”, the figures for the IC50 (ng/ml), A204 CAGA12 luciferase reporter assay in experiment [9], in experiment [10] and in experiment [11] were 10000 ng/mL, 762 ng/mL and 296 ng/mL, respectively.

Consider “K55D (homodimeric ActRIIB-Fc construct) (Fc fusion)”, for which the IC50 (ng/ml), A204 CAGA12 luciferase reporter assay in experiment [9] stood at 5500 ng/mL; in [10], 396 ng/mL; in [11], 365 ng/mL.

As for “E50P (homodimeric ActRIIB-Fc construct) (Fc fusion)”, the IC50 (ng/ml), A204 CAGA12 luciferase reporter assay turned out to be 3000 ng/mL in experiment [9], 756 ng/mL in [10] and 638 ng/mL in experiment [11].

Consider “L79H-F82K: homodimeric ActRIIB-G1Fc fusion with L79H and F82K substitutions; mature SEQ ID NO: 347”, for which the “GDF11 binding compared to unmodified ActRIIB-Fc (in words)” value in experiment [5] (setting [14]) was “significant decrease in GDF8 and GDF11 binding”. Further, the “GDF8 binding compared to unmodified ActRIIB-Fc (in words)” value in [7] (setting [14]) is “significant decrease in GDF8 and GDF11 binding”. The “BMP10 binding compared to ActRIIB-G1Fc (in words)” value in experiment [1] was “decrease in BMP10 binding”. Besides, in experiment [2], the “affinity for activin B compared to unmodified ActRIIB-Fc (in words)” value is recorded as “relatively high affinity for activin B”. For the same substance, the “binding to BMP9 compared to unmodified ActRIIB-Fc (in words)” value in experiment [3] is “decrease in binding to BMP9”. In addition, in [4], the “activin A binding compared to ActRIIB-G1Fc (in words)” value was “significant decrease”.

For “L79H: homodimeric ActRIIB-G1Fc fusion with L79H substitution; mature SEQ ID NO: 344”, the “BMP10 binding compared to ActRIIB-G1Fc (in words)” value in experiment [1] is on record as “decrease in BMP10 binding”. The “affinity for activin B compared to unmodified ActRIIB-Fc (in words)” value in [2] is on record as “relatively high affinity for activin B”. In addition, the “binding to BMP9 compared to unmodified ActRIIB-Fc (in words)” value in experiment [3] is recorded as “decrease in binding to BMP9”. Also, the “activin A binding compared to ActRIIB-G1Fc (in words)” value in experiment [4] is “significant decrease”.

Regarding “E52A (homodimeric ActRIIB-Fc construct) (Fc fusion)”, the results for the IC50 (ng/ml), A204 CAGA12 luciferase reporter assay in experiment [9], in experiment [10] and in [11] were 359 ng/mL, 198 ng/mL and 71 ng/mL, respectively.

Consider “A24N (homodimeric ActRIIB-Fc construct) (Fc fusion)”, for which the figures for the IC50 (ng/ml), A204 CAGA12 luciferase reporter assay in experiment [9], in experiment [10] and in experiment [11] were 409 ng/mL, 128 ng/mL and 99 ng/mL, respectively.
